Source: the supplement of paper PMC12042874
± gives the uncertainty stated by the source.

test: amyloid nucleation score (Sup35N fusion, yeast selection) (log enrichment); library NNK3; higher = more nucleation; inactive = no reads after selection
Procedure, shortened: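 Peptides of 20 random codons fused to Sup35N were expressed in psi-negative yeast, induced 24 hours with 100 μM copper sulfate, then grown 7 days at 30°C on medium lacking adenine and uracil. Input and output plasmid inserts were Illumina-sequenced. Nucleation score is the DiMSum log enrichment of output over input reads, centred on the mode score of non-aggregating sequences, excluding sequences with under 100 input reads. Random libraries had three technical output replicates.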

Substance | amyloid nucleation score
QLIELGRVVTCV | inactive
LFLMIFNARNCVRYGIEGPS | inactive
SLTVKFSLLKGESQVDHFVS | -0.158 ± 0.85
FLYWVGSFEAEPV | inactive
TGVVMCLGIEMINDYIPVLN | inactive
NSIFSVFIGMMPCLGSMENI | 3.1 ± 0.081
IMELLQV | inactive
VMYGEVSDTYMAREICKFSA | inactive
LVCSLLQASNWCVISSS | 0.753 ± 0.11
IRMIDWILLDAVT | inactive
RSQRKTFHWKFWRPSCSDQW | 0.868 ± 0.12
QIRAIMYVFGISVSAVLGAK | -0.19 ± 0.49
TSNALYLLLLRHLYNMLLHV | inactive
VFYGLYF | inactive
DRIDRDGRRIECQWGRGGVM | inactive
TCECDGFLFFRRCFNWG | inactive
VYKWSNVLM | inactive
RHNISFT | inactive
LQSNFRSPTISGFTTEKVGK | inactive
WLSYIDGSKVELIVQAW | inactive
TWDICFSTLFLMPRMWFGHL | inactive
SACSYYTMHHIFGAMFHN | inactive
STVCWHMQRVASTVAL | inactive

Substance | amyloid nucleation score
RPVSGTNFINAN | inactive
RINESRLYLSEVKYGLTCVR | inactive
VIFTIHNGT | inactive
LLNSM | inactive
TQFTLCTIHSVLCVNA | 2.06 ± 0.078
WYMGFSAVLVCFRLSRPVT | inactive
IHVMSWKQSYSI | 0.949 ± 0.15
MLNNNRWVGVFRLCWNVVWS | inactive
RSLCQQYQRFSSLRKVIGLS | inactive
LILSSCVKGPVSCRPM | inactive
DAKKNLLVGVFCHYRSSQER | inactive
LNVMFSFRYPWFSVFVLMIV | inactive
LFADWQG | inactive
ICWMRDTTVVGFRWV | -0.07 ± 0.96
TRYCVVNW | -0.511 ± 0.56
NFSFELMKDHYIGLQMVV | inactive
VNNNYEVCNDRDSCPLINFC | inactive
TWLGLLCREGSSNWV | inactive
LNEFIKYLDICKFFSCSGRN | 1.61 ± 0.1
FGYSLMLVTACVLRCQSLWS | inactive
STETYWYSHLIINLVGSWF | inactive
FFVLYRLRELPPAQLMMKAA | inactive
SRWIGYSFSGGSGGFVGRKA | inactive

Substance | amyloid nucleation score
GAQSSTEIAQFYKNGMTSNQ | inactive
YSGGLWWYWPSECNNAKYVL | inactive
SSGHMICIYYQLVHIIVRLC | inactive
IRTSGSMYIISIWRWVGRTL | inactive
DNLPTRRYLNKNDWRGASYL | inactive
GFFSLYVVE | inactive
CWPSVMFKISADNSGWFGVD | inactive
KKMLLWHI | inactive
VLGVVT | inactive
SAGAQSHSIYRAAVLSACLY | inactive
TSGGTFQDATSHNSNSHMWK | inactive
FVSIWEHNSIVRRCGVRLDR | inactive
QHTGGVLRRTMFINRVSRRM | inactive
PLNDNRRVPAISVFKECQTS | inactive
KMCDECIVLS | inactive
AYLSSTSANF | inactive
NTVSHMY | inactive
IHYPKCVAGLCSRSLCTAVV | inactive
GAFSYEVFPTGRPLFKTGGH | inactive
MRPVT | inactive
RIFRCVEIA | inactive
ADRVSVIYMS | inactive
ILSLSQMNT | inactive

Substance | amyloid nucleation score
IQLCTKIYSITKV | inactive
GISSKRMFLSLSAFERSVYI | inactive
LSLFVGGAEGWVKGDPASEG | 0.507 ± 0.25
SVCMVFYPVEREKEDQKSVE | inactive
RRRLG | inactive
TDVVSSVILRYSFFGHVNEF | inactive
SVFCMLYLFWLSFLIVLLLM | 1.59 ± 0.13
HCDLGESFTALYSFHAVLML | inactive
GLSISFTTDFFLKVLSESAR | inactive
WSTMMNNWCLLWGCKLKPKL | inactive
AVYCPINLLAF | inactive
AFKECARRR | inactive
VLSVWDHLYLRNSSCAPTYR | -0.641 ± 1.4
GCSTINALCGHLDVVVCIAG | 1.64 ± 0.094
DAWDDNYNASRIGFAYMYSI | inactive
GVGGPDGCTGNDTFMRQYTN | inactive
TRWRLSVYERVGARRDTPLC | inactive
KLSCMSTIVCRYTFLQAKQT | inactive
HDHFWLYCMCNRTSGYLESF | inactive
DNIGSCHDSRAYVS | inactive
MLDCYWPFPNISIRIWTEWV | inactive
FLFRNLVAWFMHSDLFFYGV | inactive
KCSNLVAFVI | inactive

Substance | amyloid nucleation score
YSNWKLRRRCYLRDNIFWVI | inactive
RKKESYSN | inactive
NVVLSVGMFLLKWS | 1.31 ± 0.09
CRAVND | inactive
ASNYYKCCCSNWLCCLMSDR | 2.91 ± 0.066
WEGMNNKIRAYAYIATLVYT | inactive
SNFLGNQRMLRSAQIPRMRL | inactive
FIDNRGSDSSTICCYNYAAQ | 0.407 ± 0.61
WVHSVKENVSCGSRF | inactive
FVRVALMYFVLKLTSRYKRN | inactive
RCVIMTPLAIREHDNDASCQ | inactive
VKIFS | inactive
HESKTMRKEEIMYTRWYKVL | inactive
MMCFTLS | inactive
LRRGMMARFIVNVVRVN | inactive
CVPHRRAIVGFFRGCVNAAS | inactive
NKSLWGC | inactive
MELNLNKSSAYYKSVHFSVT | -0.053 ± 0.3
TRASRRKSHSTSMDLPIRRH | inactive
GNLSFTPGITRKKSVLEYRH | inactive
ISSPNEVWSVIVEWPRIYC | inactive
SREVSLLKWMVIILCLW | inactive
NYRWTWPMPTQEALTPNSDS | inactive

Substance | amyloid nucleation score
SDEYTVTFHPSTPGKVSERD | inactive
ILVCESV | inactive
YSWYEDPWWGERFWP | inactive
LDFYRTFNDSIFKMGPLCLS | inactive
RCVQCEAYFCLFDKPDVDDT | 3.05 ± 0.053
ATTDGTVSCVYPRFRLFWCI | inactive
IVYYGVTGLTRGFSEVRKIS | inactive
RTNILVGRIR | inactive
MVVVPDQLRVTGMRSGGKSG | inactive
YLFWLYERRKGDYISPHVLR | inactive
LSFCVVSTGRCAAMEN | inactive
LSGKTMVFFPKSNMRNNTRS | inactive
WLHTCRGSMDW | inactive
NLGRFLFSICCASLFAGCNG | -0.245 ± 0.99
VICFFTTNAEHLQFLV | inactive
IFVNWMVISVGLARFDVINA | -0.579 ± 0.69
SFNHCM | inactive
DVAYFNAFY | inactive
IMNSPKGYTILWRGSLRGIQ | inactive
LYSLFVMFLSVKVWFIVFM | inactive
APIWVFRAYLVFL | inactive
DIVCNFVT | inactive
MYTKNPSVSILCFDENGERA | inactive

Substance | amyloid nucleation score
YMLWDDMVEKYHCLSQRLGR | inactive
SPQVLDRWDQFKWKFVFRGS | 0.584 ± 0.13
IRDVG | -0.573 ± 1
FHIPLSQRCLAPFCNAHL | inactive
SCSCESCYKGVAEYDLVKDV | 1.32 ± 0.16
PMVISHMGLFFLKVGISR | inactive
CGLDSCLVICQYK | 0.584 ± 0.28
GYGHVIYLYYCQRHDNPQVQ | inactive
DVLRVPMNEVTNWSIPPY | inactive
KLNAVYTRSAGWLSHQEM | inactive
VLVNGSGRNWEYYISRRFFF | inactive
EVMLYRQHHDVRHEHSGYLT | inactive
SRCGSIGGMKG | inactive
SFLTKSQKTNCGSLKEMCVG | inactive
SLMYKWKEGSQDGYCWAW | 0.824 ± 0.28
YSLSINCMFRYRSFSDFIDN | 0.992 ± 0.2
IMVRGVRDS | inactive
LEHCLCGLKYPDE | inactive
RELRF | inactive
IARSREI | inactive
AHLLETMDTREVFKIR | inactive
